Key:
[1] = tested on: primary human pan T cells; assay: Cytokine production following PD-L1-dependent costimulation; type: cell-based; settings: mitomycin-c treated K562/OKT3/PDL1 aAPC; FIG. 6
PD-L1/PD-1 interaction = target: T1, PD-L1/PD-1 interaction (Homo sapiens, UniProt Q9NZQ7); assay: PD-L1/PD-1 binding and blocking on CHO/PD-L1 cells; settings: fluorescently conjugated PD-1-Fc; FIG. 7
T1 construct: expressed in transfected cells
Protocol: Binding of selected immunomodulatory fusion proteins to cells expressing PD-L1 was assessed to test for blocking of the PD-L1/PD-1 interaction. […] Samples were acquired on a flow cytometer and MFIs of the fluorescently labeled PD-1 were determined by Flowjo software analysis.
(§1) The multivalent variant CD80 IgSF domain fusion proteins were assessed to test for blocking of the PD-L1/PD-1 and CTLA-4/CD80 interaction performed substantially as described in Example 15. CHO/OKT3/PD-L1 and CHO/CTLA-4 cells were counted and plated at 100,000 cells/well and then incubated with fluorescently conjugated PD-1-Fc and CD80-Fc. Exemplary multivalent variant CD80 IgSF domain fusion proteins were incubated with the cells for 30 minutes. […] Cells were washed and incubated with 100 nM fluorescently conjugated PD-1-Fc and CD80-Fc competitor for 30 minutes. Cells were then washed and samples were acquired on a flow cytometer and MFIs of the fluorescently labeled molecules were determined.

CD28 [2] = target: T2, CD28 (Homo sapiens, UniProt P10747); assay: Flow binding to Jurkat/IL2 reporter cells (CD28); parameters: host or cells: Jurkat cells expressing an IL-2-luciferase reporter; settings: Table E19; Jurkats (CD28); 33.3 nM
Procedure, shortened: (§2)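 Flow cytometry on transfected CHO cells or CD28+ Jurkat/IL2 reporter cells, blocked 20 min in PBS/1% BSA/0.1% azide. Fusion protein 45 min on ice; PE anti-human Fc 1:150, 30 min on ice; fixed in 2% formaldehyde. Read-out PE MFI, EC50 calculated.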

huCTLA4 [3] = target: T3, huCTLA4 (Homo sapiens, UniProt P16410); assay: Antagonism of CD80/CTLA-4 binding on CHO cells expressing CTLA-4; parameters: Full-length mammalian surface expression constructs for each of human CTLA-4, PD-L1, and CD28; settings: 25 nM fluorochrome-conjugated wild-type CD80-Fc; FIG. 21
T3 sequence (P16410 36-223): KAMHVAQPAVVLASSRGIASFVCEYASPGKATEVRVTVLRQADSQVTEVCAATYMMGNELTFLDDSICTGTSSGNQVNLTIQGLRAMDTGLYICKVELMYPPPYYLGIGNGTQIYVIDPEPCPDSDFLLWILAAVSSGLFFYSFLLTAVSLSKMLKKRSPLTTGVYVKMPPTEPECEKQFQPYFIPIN
Protocol: After washing, cells were incubated with 25 nM fluorochrome-conjugated wild-type CD80-Fc. Bound fluorescent competitor protein was detected and measured by flow cytometry.
as §1

huCTLA4 [4] = target: T3, huCTLA4; assay: Flow binding to CHO cells stably expressing CTLA4; parameters: huCTLA4 and huPD-L1, full-length mammalian surface expression constructs were generated; expressed in transfected cells; host or cells: CHO cells, lentiviral transduction, sorted to >98% purity; settings: Table E19; CHO cells stably expressing CTLA4; 33.3 nM
Procedure, shortened: as §2

CD28 [5] = target: T2, CD28; assay: Jurkat/IL2 + K562/OKT3/PD-L1 reporter assay; type: cell-based; parameters: host or cells: Jurkat cells expressing an IL-2-luciferase reporter
CD28 [6] = target: T2, CD28; assay: Jurkat/IL2 + CHO/OKT3 +/- PD-L1 reporter assay: PD-L1-dependent CD28 costimulation; type: cell-based; parameters: host or cells: Jurkat cells expressing an IL-2-luciferase reporter; settings: luciferase signal; for PD-L1-Dependent CD28 Costimulation, +PD-L1, 0.6 nM / PD-L1-Dependent CD28 Costimulation, +PD-L1, 50 nM: CHO/OKT3/PD-L1 aAPC; for PD-L1-Dependent CD28 Costimulation, No PD-L1, 50 nM / PD-L1-Dependent CD28 Costimulation, No PD-L1, […]: CHO/OKT3 aAPC
Procedure, shortened: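 Jurkat reporter cells (100,000/well) preincubated 15 min at room temperature with test protein, then cocultured 5 h at 37 °C with CHO aAPCs bearing anti-CD3 scFv (OKT3) with or without PD-L1. Luciferase luminescence (RLU) read after lysis-substrate addition.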

[7] = tested on: huPD-L1 transduced MC38 tumor cells; assay: In vitro cytotoxicity to huPD-L1 transduced MC38 tumor cells; type: cell-based, mouse; settings: 100 nM or 10 nM; 72 hours; human pan T cells 1:5; FIG. 17
Protocol: This Example describes the assessment of in vitro cytotoxicity of huPD-L1 transduced MC38 tumor cells. MC38 tumor cells, non-transduced or transduced with huPD-L1, were treated with Mitomycin-C and plated with human pan T cells labelled with CFSE at a 1:5 ratio. […] As a control, an exemplary anti-PD-1 antibody nivolumab or an Fc (inert) only control also were assessed. Cells were then harvested and stained with 7-AAD viability dye. After acquiring samples on a flow cytometer, the percentage of dead cells was calculated using Flowjo analysis by gating on 7-AAD+ cells in the CFSE− gate.

CD28 [8] = target: T2, CD28; assay: Jurkat/IL2 reporter assay: blockade of CD28 costimulation (plate-bound anti-CD3/CD86-Fc); type: cell-based; parameters: host or cells: Jurkat cells expressing an IL-2-luciferase reporter; settings: Table E5; protein diluted to 40 nM before mixing with cells; 5 hours
Procedure, shortened: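 Jurkat cells carrying an IL-2–luciferase reporter were preincubated 15 min at room temperature with CD80-Fc fusion molecules, then added to plates coated overnight with anti-CD3 and CD86-Fc. After 5 h at 37 °C, luciferase luminescence was read with Bio-Glo.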

CD28 [9] = target: T2, CD28; assay: CD28 costimulation via Fc receptor or PD-L1 dependent cross-linking (Jurkat/IL2 + K562/OKT3 +/- PD-L1); type: cell-based; parameters: host or cells: Jurkat cells expressing an IL-2-luciferase reporter; settings: K562/0KT3 aAPC, luciferase signal
Protocol: In a further experiment, CD28 costimulation was assessed for variant CD80-IgV-Fc fusion proteins, where the Fc was an IgG1 Fc (e.g. SEQ ID NO:1517) capable of mediating effector activity via binding to Fc receptors (FcR). The experiment was carried out as described in part A above, except CD32-expressing K562 cells stably transduced with OKT3 (K562/OKT3) or OKT3 and PD-L1 (K562/OKT3/PD-L1) were used instead of the CHO/OKT3 and CHO/OKT3/PD-L1 cells, and the results are depicted in Table E9.

MC38 hPD-L1 tumor cells = assay: MC38 hPD-L1 tumor model in C57BL/6 mice; type: in vivo, mouse
Protocol: Mouse MC38 tumor cells were stably transfected with human PD-L1 (MC38 hPD-L1) and implanted subcutaneously into C57BU6 mice. […] Tumor volume was tracked over time.
70 female C57CL/6 mice, containing similar tumor volumes of approximately 50-51 mm^3, following implantation of MC38 hPD-L1 tumor cells, were staged and divided into 5 treatment groups containing 14 mice each. […] Tumor volumes were measured on days 7, 10, and 12. On day 13, 5 animals were sacrificed for analysis as described in the sections below. Tumor measurements resumed for the remaining 9 mice for each group on days 17, 20 and 27. On days 26, 28, and 31, the animals in Group 1 (Fc isotype control) received an intratumoral injection of 100 μg E35D/M47L CD80-IgV-Fc.
95 female C57BU6 mice were implanted with MC38 hPD-L1 tumor cells. The tumors were staged on Day 7, and 77 mice with similar tumor volumes of approximately 60 mm^3 were divided into 7 treatment groups containing 11 mice each.
On day 49, tumor-free mice, from Groups 3, 4, 6, and 7, and 2 naïve C57CL/6 mice were re-challenged with an additional injection of hPD-L1 MC38 cells. Tumor volumes were measured on days 56, 59, and 63. The results are depicted in FIG. 13. […] At day 59, 8/8 mice from Group 3, 1/2 mice from Group 4, 1/1 mouse from Group 6, and 2/2 mice from Group 7 were tumor-free, and by day 63, all mice in Group 3, Group 4, Group 6, and Group 7 were tumor-free.
75 animals were staged into 3 treatment groups 7 days after implantation with hPD-L1 MC38 tumor cells. […] Tumor volumes were measured every 3-4 days, from Day 11 until Day 35. 3 days after the 1st dose, 2nd dose and 3rd dose, 4 mice from each group were sacrificed for tumor and LN analyses, leaving 13 mice for tumor volume measurements throughout the study period.

huPD-L1 = huPD-L1 (Homo sapiens, UniProt Q9NZQ7); assay: Flow binding to CHO cells stably expressing PD-L1; parameters: huCTLA4 and huPD-L1, full-length mammalian surface expression constructs were generated; expressed in transfected cells; host or cells: CHO cells, lentiviral transduction, sorted to >98% purity; settings: Table E19; CHO cells stably expressing PD-L1; 33.3 nM
Sequence of huPD-L1 (Q9NZQ7 19-290): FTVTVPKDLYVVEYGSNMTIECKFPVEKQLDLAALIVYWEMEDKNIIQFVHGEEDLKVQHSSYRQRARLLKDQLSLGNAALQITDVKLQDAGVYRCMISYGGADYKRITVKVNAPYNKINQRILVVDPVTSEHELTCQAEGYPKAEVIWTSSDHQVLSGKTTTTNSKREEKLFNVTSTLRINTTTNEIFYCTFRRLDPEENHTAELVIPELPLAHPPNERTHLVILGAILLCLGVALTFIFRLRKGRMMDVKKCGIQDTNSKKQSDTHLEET
Procedure, shortened: as §2

Pan T cells = assay: Primary T cell stimulation assay with K562/OKT3 +/- PD-L1 (IL-2, IFN-gamma, proliferation); type: cell-based, human; settings: 1, 10, 100 nM; 72 hr
Protocol: IFN-gamma, IL-2 and proliferation were determined after 72 hr. incubation.

[10] = re-challenged on day 49 with hPD-L1 MC38 cells

T1 sequence (Q9NZQ7 19-290): as above

Molecule | CD28 MFI at 33.3 nM (CD28 [2]) | CTLA4 MFI at 33.3 nM (huCTLA4 [4]) | PD-L1-Dependent CD28 Costimulation, +PD-L1, 0.6 nM (CD28 [6]) | PD-L1-Dependent CD28 Costimulation, +PD-L1, 50 nM (CD28 [6]) | PD-L1-Dependent CD28 Costimulation, No PD-L1, 50 nM (CD28 [6]) | PD-L1-Dependent CD28 Costimulation, No PD-L1, […] (CD28 [6]) | Average Relative Luminescence Units (CD28 [8]) | CD28 costimulation, FcR Dependent Cross-Linking (No PD-L1), 0.6 nM (CD28 [9]) | CD28 costimulation, FcR Dependent Cross-Linking (No PD-L1), 50 nM (CD28 [9]) | further results
E35D/M47V/N48K/V68M/K89N: variant CD80 IgV-Fc, IgV SEQ ID NO:465 (protein) VIHVTKEVKEVATLSCGHNVSVEELAQTRIYWQKDKKMVLTMMSGDVKIWPEYKNRTIFDITNNLSIMILALRPSDEGTYECVVLKYENDAFKREHLAEVTLSVKAD | 1348 | 20884 |  |  |  |  |  |  |  | IL-2 secretion in culture supernatants [1]: resulted in IL-2 secretion in culture supernatants; blocking of binding of PD-1 to PD-L1 (PD-L1/PD-1 interaction): antagonize or block binding of PD-1 to PD-L1; antagonism of binding of CD80 to CTLA-4 (huCTLA4 [3]): antagonized the binding of CD80 to CTLA-4; PD-L1 dependent CD28 costimulation (luciferase activity) (CD28 [5]; IgV-Fc (inert), various concentrations, FIG. 5): induced PD-L1 dependent CD28 costimulation in a dose-dependent manner; Relative Luciferase Units (RLU), CD80-Fe Cone 50 nM (CD28 [5]; Table E8, K562/OKT3/PD-L1 aAPC, 50 nM): 1439 RLU
E35D/M47I/L70M: variant CD80 IgV-Fc, IgV SEQ ID NO:199 (SEQ ID NO:125 in b995) (protein) VIHVTKEVKEVATLSCGHNVSVEELAQTRIYWQKDKKMVLTMMSGDINIWPEYKNRTIFDITNNLSIVIMALRPSDEGTYECVVLKYEKDAFKREHLAEVTLSVKAD |  |  | 1004 | 2629 | 600 | 549 | 1077 Relative Luminescence Units | 1609 | 5780 | cytotoxicity (percentage of dead 7-AAD+ tumor cells) [7]: increased cytotoxicity against huPD-L1 transduced MC38 tumor cells, but not non-transduced MC38 parental cells
E35D/M47L: variant CD80 IgV-Fc, IgV SEQ ID NO:208 (protein) VIHVTKEVKEVATLSCGHNVSVEELAQTRIYWQKDKKMVLTMMSGDLNIWPEYKNRTIFDITNNLSIVILALRPSDEGTYECVVLKYEKDAFKREHLAEVTLSVKAD | 411 | 48010 |  |  |  |  | 1110 Relative Luminescence Units | 2119 | 8685 | mice with no detectable tumors (tumor-free) upon completion of the study (MC38 hPD-L1 tumor cells; 100 μg on days 7, 9 and 11, 11 mice per group): 1 mice; tumor growth / tumor volume (MC38 hPD-L1 tumor cells; i.p. dosing, compared to Fc control or anti-PD-L1): dose-dependent decrease in tumor volumes; tumor-free mice after re-challenge, day 59 (MC38 hPD-L1 tumor cells; [10]): 1/1; tumor-free mice after re-challenge, day 63 (MC38 hPD-L1 tumor cells; [10]): tumor-free; PD-L1 MFI at 33.3 nM (huPD-L1): 7529
E35G/K54E/A71D/L72P: variant CD80 IgV-Fc, IgV SEQ ID NO:219 (protein) VIHVTKEVKEVATLSCGHNVSVEELAQTRIYWQKGKKMVLTMMSGDMNIWPEYENRTIFDITNNLSIVILDPRPSDEGTYECVVLKYEKDAFKREHLAEVTLSVKAD |  |  | 529 | 476 | 440 | 417 |  | 1337 | 1510 | CD28 costimulation and IL-2 production (Pan T cells): did not generate significant costimulation and IL-2 production
